Measurements from patent publication US20100021473A1 (DOMANTIS, published 2010).

Columns and labels:
[1] = biological target: T1, CD38 immobilised on Biacore CM5 chip (UniProt P28907 43-300, limits assumed); assay: SPR (Biacore) co-injection on immobilised CD38, dAbs at 500 nM
T1 construct: also called DOM11
Protocol: (§1) Anti-CD38, anti-CEA and anti-CD56 dAbs that were identified as FACS positive clones were in addition analysed by Biacore using the following procedure. The CM5 chip surface was activated by flushing 1:1 EDC/NHS (0.4M1-ethyl-3-(3-dimenthylaminopropyl)-carbodiimide in water; 0.1 M N-hydroxysuccinimide in water) at a flow rate of 5 uL/min for 10 minute contact time. CD38 was immobilised at 500 nM in Acetate buffer pH4 at 5 uL/min this was repeated until the RUs reached between 500 and 1000 (low density). CEA and CD56 were coupled in acetate buffer pH 4.5. Any excess reactive groups were deactivated by running 1M ethanolamine-HCl over the CM5 chip (again 5 uL/min for 7 mins). The affinities of the anti-CD38, anti-CEA and anti-CD56 dAbs were measured on the biacore as described above.
Epitope mapping was performed to determine whether anti-CD38 dAbs bound to different epitopes on CD38. The assay was performed on BIAcore as described above using a chip coated at medium density (RUs of ˜2000). CD38 was coated on to a CM5 chip at medium density as described above. Using the co-inject function, the first anti-CD38 dAbs was injected at a concentration of 500 nM. Both the first and second anti-CD38 dabs were the co-injected at the same concentration (500 nM). As both dAbs bind different epitopes, the RUs during the second injection increase beyond the level of binding of the first dAb.

CD38 on cells = biological target: T2, CD38 on cells (UniProt P28907 1-300); assay: FACS on RPMI cells (CD38+/138+)
T2 construct: whole, on cells; Endogenous CD38 on cell lines used in FACS or microscopy; also called DOM11; T10
Protocol: (§2) All dAbs were analysed by FACS on antigen positive and negative cell lines using the following method.
(§3) The determination of cell binding by FACS was carried out as follows: cells were centrifuged at 250 g for 5 minutes and the growth medium was removed. The cells were resuspended in FACS incubation buffer at 4° C. at a density of 2×10⁶ cells/ml. The cells were blocked by incubating for 15 minutes at 4° C. in FACS incubation buffer. Fifty microliters of 2× stock of primary antibody (anti-CD38 FITC, anti-CD138 FITC or mIgG1 FITC conjugated isotype control (all BD Biosciences) was added; or dAb was added to cells in FACS incubation buffer and incubated for 30-60 minutes at 4° C. The cells were then washed once in FACS incubation buffer. One hundred microliters of secondary antibody (rabbit anti-Vk) was added to cells in FACS incubation buffer and incubated 30-60 minutes at 4° C. The cells were washed once in FACS incubation buffer. Then 100 ul of 1× tertiary antibody was added to the cells in FACS incubation buffer and incubated for 30-60 mins at 4° C. (for dAbs the tertiary antibody is anti-rabbit FITC (Sigma)). The cells were washed twice in FACS incubation buffer. The cell pellet was resuspend in 200 ul FACS incubation buffer+viable cell marker (BD Viaprobe). The cells were then analyzed by flow cytometry.

CD138 on cells [2] = biological target: T3, CD138 on cells (UniProt P18827 23-310); assay: FACS on RPMI cells (CD38+/CD138+), dAb at 500 nM
T3 construct: whole, on cells; Endogenous CD138 on cell lines used in FACS; also called DOM12; syndecan-1
T3 sequence (looked up): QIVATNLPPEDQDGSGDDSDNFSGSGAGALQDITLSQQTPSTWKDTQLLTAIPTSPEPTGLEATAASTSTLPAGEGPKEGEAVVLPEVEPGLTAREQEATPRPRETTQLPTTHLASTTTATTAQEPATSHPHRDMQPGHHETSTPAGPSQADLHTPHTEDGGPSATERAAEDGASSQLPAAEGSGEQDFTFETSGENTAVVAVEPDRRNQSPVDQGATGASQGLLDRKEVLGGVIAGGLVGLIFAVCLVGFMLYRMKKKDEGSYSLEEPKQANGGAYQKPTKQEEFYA
Protocol: as §2, §3

[3] = biological target: T1, CD38 immobilised on Biacore CM5 chip; assay: Biacore, CD38 immobilised; upper end of the printed range 330-500 nM (Table 8, affinity maturation experiment)
[4] = biological target: T1, CD38 immobilised on Biacore CM5 chip; assay: Biacore, CD38 immobilised; lower end of the printed range 330-500 nM (Table 8, affinity maturation experiment)
CD138 on cells [5] = biological target: T3, CD138 on cells; assay: FACS on HUVEC cells (CD38-/CD138+)
Protocol: as §2, §3

[6] = biological target: T1, CD38 immobilised on Biacore CM5 chip; assay: SPR (Biacore), CD38 immobilised on CM5 chip
Protocol: as §1

B1: DOM11-23 (other)
chain: DIQMTQSPSSLSASVGDRVTITCRASQSINVRLIWYQQKPGKDPKLLIYSSSHLQSGVPSRFSGSGSGTDFTLTISSLQPEDFATYYCQQYHYTPFTFGQGTKVEIKR
notes: Anti-CD38 dAb monomer
binding result [1]: binds | binding result (CD38 on cells): binds

B2: DOM12-45 (other)
chain: DIQMTQSPSSLSASVGDRVTITCRASQDIGDRLRWYQQKPGKAPKLLIYHGSRLESGVPSRFSGSRSGTDFTLTISSLQPEDFATYYCQQQWFRPYTFGQGTKVEIKR
notes: Anti-CD138 dAb monomer
binding result (CD138 on cells [2]): binds

B3: DOM11-3 (other)
chain: DIQMTQSPSSLSASVGDRVTITCRASQNIDSRLSWYQQKPGKAPKLLIYRTSVLQSGVPSRFSGSGSGTDFTLTISSLQPEDFATYYCQQWDMFPLTFGQGTKVEVK
notes: Anti-CD38 domain antibody (dAb) monomer; also called DOM11-3A
Kd [3]: 330 to 500 nM | Kd [4]: 330 to 500 nM | binding result (CD138 on cells [5]): no binding | Kd [6]: 250 nM
